According to PMC10700544:
Values joined by “and” are separate entries in the source; they are usually repeats but may differ in a detail not shown here. Identical values can stand only once.

Columns and labels:
[1] = target: His-tagged RNase J K649Q (pET28a+) (Helicobacter pylori) (UniProt P56185); assay: AUC; sedimentation velocity of His-tagged purified proteins, alone or mixed; 25 mM Tris-HCl pH 8, 300 mM NaCl, 0.5 mM TCEP; 20 °C; 230 nm; c(s) analysis with Sedfit
[2] = target: His-tagged RNase J wild type (pET28a+) (Helicobacter pylori) (UniProt P56185); assay: as above
[3] = target: His-tagged RNase J K649A (pET28a+) (Helicobacter pylori) (UniProt P56185)
[4] = target: His-tagged RhpA (pET28a+) (Helicobacter pylori) (UniProt O25029); assay: AUC; sedimentation velocity of His-tagged purified proteins, alone or mixed; 25 mM Tris-HCl pH 8, 300 mM NaCl, 0.5 mM TCEP; 20 °C; 230 nm; c(s) analysis with Sedfit
[5] = target: His-tagged RNase J K649R (pET28a+) (Helicobacter pylori) (UniProt P56185); assay: as above
[6] = target: full-length RNase J (H. pylori strain B128) with C-terminal 8xHis-tag, from pExp-xMBP-CHis (Helicobacter pylori strain B128) (UniProt P56185); assay: mass photometry; Refeyn TwoMP; 20 mM sodium phosphate pH 7.2, 300 mM NaCl; final concentration of 50 nM
[7] = target: full-length RNase J (H. pylori strain B128) with C-terminal 8xHis-tag, from pExp-xMBP-CHis (Helicobacter pylori strain B128) (UniProt P56185); assay: cryo-EM structure; mixture of RNase J (1 µM) and RhpA (2 µM) in 20 mM sodium phosphate pH 7.2, 500 mM NaCl, 0.5 mM TCEP; Quantifoil R1.2/1.3 grids, 200 kV Talos Arctica
[8] = target: RhpA with C-terminal Strep-tag, from pExp-MBP (Helicobacter pylori) (UniProt O25029); assay: mass photometry; Refeyn TwoMP; 20 mM sodium phosphate pH 7.2, 300 mM NaCl; final concentration of 50 nM
[9] = target: His-tagged RNase J K649A (pET28a+) (Helicobacter pylori) (UniProt P56185); assay: AUC; sedimentation velocity of His-tagged purified proteins, alone or mixed; 25 mM Tris-HCl pH 8, 300 mM NaCl, 0.5 mM TCEP; 20 °C; 230 nm; c(s) analysis with Sedfit

“His-tagged RNase J K649Q (pET28a+) (from UniProt P56185 1-689) (enzyme)” was tested, and the stoichiometry N [1] was 4 and 2.

In the case of “His-tagged RNase J wild type (pET28a+) (from UniProt P56185 1-689) (enzyme)”, the stoichiometry N [2] is reported as 2 and 4.

Substance “His-tagged RhpA (pET28a+) (from UniProt O25029 1-492) (enzyme)” has a half-life of the structured RNA substrate with the complex between RhpA and the RNase J K649A variant (value of the text, differs from the table) [3] of 6.7 min and a stoichiometry N [4] of 2.

With “His-tagged RNase J K649R (pET28a+) (from UniProt P56185 1-689) (enzyme)” the stoichiometry N [5] was 4 and 2.

Work on “full-length RNase J (H. pylori strain B128) with C-terminal 8xHis-tag, from pExp-xMBP-CHis (from UniProt P56185 1-689) (enzyme)” yielded a stoichiometry N [6] of 4 and a stoichiometry N [7] of 4.

“RhpA with C-terminal Strep-tag, from pExp-MBP (from UniProt O25029 1-492) (enzyme)” gave a stoichiometry N [8] of 2.

Substance “His-tagged RNase J K649A (pET28a+) (from UniProt P56185 1-689) (enzyme)” has a stoichiometry N [9] of 4.
